Experimental data taken from patent US20240228579A1 (Innovent, published 2024).
Where a chain is given by its changes, count along the chain named. Names and notes keep the numbering of the source.

T1: Human CD32A/FCGR2A protein (167his) (human, UniProt P12318 34-218, limits assumed)
T1 construct: Bought, his-tagged; also called CD32A (H167); CD32A H167; not shown: his tag
T1 sequence (looked up): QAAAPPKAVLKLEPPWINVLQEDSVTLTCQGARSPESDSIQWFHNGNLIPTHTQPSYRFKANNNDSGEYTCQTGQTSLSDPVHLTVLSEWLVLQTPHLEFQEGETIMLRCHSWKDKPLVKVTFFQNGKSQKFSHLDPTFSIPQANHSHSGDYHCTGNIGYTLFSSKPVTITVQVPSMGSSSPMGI

T2: Human CD32A/FCGR2A protein (167Arg) (human, UniProt P12318 34-218, limits assumed)
T2 construct: Bought, his-tagged; also called CD32A (R167); CD32A R167; not shown: his tag
T2 sequence (looked up): T1 sequence (looked up) with H134R

T3: Human CD32B/FCGR2B protein (human, UniProt P31994 43-217, limits assumed)
T3 construct: Bought, his-tagged; also called FcγRIIb; not shown: his tag
T3 sequence (looked up): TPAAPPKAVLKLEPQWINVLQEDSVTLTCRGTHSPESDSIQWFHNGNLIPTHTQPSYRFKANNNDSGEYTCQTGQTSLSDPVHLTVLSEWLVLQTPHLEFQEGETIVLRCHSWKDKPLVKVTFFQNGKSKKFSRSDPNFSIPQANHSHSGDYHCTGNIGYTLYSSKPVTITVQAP

T4: Claudin18.2 (cp0007, Genscript) (UniProt P56856-2 1-261, limits assumed)
T4 construct: Bought antigen used in BLI; also called Claudin18.2 antigen; the antigen
T4 sequence (looked up): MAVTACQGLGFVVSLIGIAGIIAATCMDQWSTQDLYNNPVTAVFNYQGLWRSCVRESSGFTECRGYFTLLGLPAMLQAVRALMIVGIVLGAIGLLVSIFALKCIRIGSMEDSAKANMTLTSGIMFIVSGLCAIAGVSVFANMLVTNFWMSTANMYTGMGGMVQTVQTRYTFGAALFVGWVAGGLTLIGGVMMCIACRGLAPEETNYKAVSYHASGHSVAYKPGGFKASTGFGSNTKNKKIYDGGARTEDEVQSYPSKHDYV

B1: Fcmut-02 (antibody, human IgG1, kappa)
heavy: QVQLVQSGAEVKKPGSSVKVSCKASGYSFSSYNIHWVRQAPGQGLEWMGYIAPFQGDSRYNQKFKGRVTITADKSTSTAYMELSSLRSEDTAVYYCARLNRGNSLDYWGQGTLVTVSSASTKGPSVFPLAPSSKSTSGGTAALGCLVKDYFPEPVTVSWNSGALTSGVHTFPAVLQSSGLYSLSSVVTVPSSSLGTQTYICNVNHKPSNTKVDKKVEPKSCDKTHTCPPCPAPELLGGPSVFLFPPKPKDTLMISRTPEVTCVVVDVSHEDPEVKFNWYVDGVEVHNAKTKPREEQYNSTYRVVSVLTVLHQDWLNGKEYKCKVSNKALAPIEKTISKAKGQPREPQVYTLPPSREEMTKNQVSLTCLVKGFYPSDIAVEWESNGQPENNYKTTPPVLDSDGSFFLYSKLTVDKSRWQQGNVFSCSVMHEALHNHYTQKSLSLSPGK
light: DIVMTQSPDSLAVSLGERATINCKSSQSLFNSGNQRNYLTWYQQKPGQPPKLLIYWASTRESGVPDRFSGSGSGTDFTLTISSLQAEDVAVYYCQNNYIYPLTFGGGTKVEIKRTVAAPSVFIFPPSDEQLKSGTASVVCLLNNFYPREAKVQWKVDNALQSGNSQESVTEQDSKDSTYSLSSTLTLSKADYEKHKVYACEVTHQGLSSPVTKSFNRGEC
notes: IgG1-mut of Fcmut-01: deletion of 329 (EU index); also called Fcmut-2
B2: Fcmut-03 (antibody, human IgG1, kappa)
heavy: B1 heavy with A330G
light: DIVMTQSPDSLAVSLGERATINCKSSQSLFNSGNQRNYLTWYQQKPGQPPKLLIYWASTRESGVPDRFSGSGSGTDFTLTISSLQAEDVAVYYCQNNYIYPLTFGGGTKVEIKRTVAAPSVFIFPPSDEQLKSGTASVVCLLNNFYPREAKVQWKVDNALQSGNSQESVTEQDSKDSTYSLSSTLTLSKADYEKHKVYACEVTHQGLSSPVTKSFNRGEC
notes: IgG1-mut of Fcmut-01: deletion of 329, G at 330 (EU index)
B3: Fcmut-04 (antibody, human IgG1, kappa)
heavy: QVQLVQSGAEVKKPGSSVKVSCKASGYSFSSYNIHWVRQAPGQGLEWMGYIAPFQGDSRYNQKFKGRVTITADKSTSTAYMELSSLRSEDTAVYYCARLNRGNSLDYWGQGTLVTVSSASTKGPSVFPLAPSSKSTSGGTAALGCLVKDYFPEPVTVSWNSGALTSGVHTFPAVLQSSGLYSLSSVVTVPSSSLGTQTYICNVNHKPSNTKVDKKVEPKSCDKTHTCPPCPAPELLGGPSVFLFPPKPKDTLMISRTPEVTCVVVDVSHEDPEVKFNWYVDGVEVHNAKTKPREEQYNSTYRVVSVLTVLHQDWLNGKEYKCKVSNKALPIEKTISKAKGQPREPQVYTLPPSREEMTKNQVSLTCLVKGFYPSDIAVEWESNGQPENNYKTTPPVLDSDGSFFLYSKLTVDKSRWQQGNVFSCSVMHEALHNHYTQKSLSLSPGK
light: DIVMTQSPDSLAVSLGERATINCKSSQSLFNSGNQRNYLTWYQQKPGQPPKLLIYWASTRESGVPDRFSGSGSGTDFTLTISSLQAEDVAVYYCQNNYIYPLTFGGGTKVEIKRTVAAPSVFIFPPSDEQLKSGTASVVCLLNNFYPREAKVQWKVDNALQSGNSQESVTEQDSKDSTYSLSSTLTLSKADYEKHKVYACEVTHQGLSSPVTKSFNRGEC
notes: IgG1-mut of Fcmut-01: deletion of 329 and 330 (EU index)
B4: Fcmut-06 (antibody, human IgG1, kappa, L234A L235A)
heavy: B1 heavy with L235A, L236A
light: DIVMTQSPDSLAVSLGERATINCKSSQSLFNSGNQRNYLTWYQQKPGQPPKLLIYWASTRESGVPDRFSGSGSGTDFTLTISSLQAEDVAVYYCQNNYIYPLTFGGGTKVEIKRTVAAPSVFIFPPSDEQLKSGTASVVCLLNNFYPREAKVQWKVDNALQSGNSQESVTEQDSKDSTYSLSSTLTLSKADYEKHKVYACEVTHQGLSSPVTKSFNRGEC
notes: IgG1-mut of Fcmut-01: L234A + L235A + deletion of 329 (EU index)
B5: Fcmut-07 (antibody, human IgG1, kappa, L234A L235A)
heavy: B1 heavy with L235A, L236A, A330G
light: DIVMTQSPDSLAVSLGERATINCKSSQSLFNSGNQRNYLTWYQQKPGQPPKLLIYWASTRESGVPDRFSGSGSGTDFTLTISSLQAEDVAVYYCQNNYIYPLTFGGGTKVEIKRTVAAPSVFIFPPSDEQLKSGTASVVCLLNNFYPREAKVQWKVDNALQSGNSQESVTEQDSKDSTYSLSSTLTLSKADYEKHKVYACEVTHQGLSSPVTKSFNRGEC
notes: IgG1-mut of Fcmut-01: L234A + L235A + deletion of 329 + G at 330 (EU index)
B6: Fcmut-08 (antibody, human IgG1, kappa, L234A L235A)
heavy: B3 heavy with L235A, L236A
light: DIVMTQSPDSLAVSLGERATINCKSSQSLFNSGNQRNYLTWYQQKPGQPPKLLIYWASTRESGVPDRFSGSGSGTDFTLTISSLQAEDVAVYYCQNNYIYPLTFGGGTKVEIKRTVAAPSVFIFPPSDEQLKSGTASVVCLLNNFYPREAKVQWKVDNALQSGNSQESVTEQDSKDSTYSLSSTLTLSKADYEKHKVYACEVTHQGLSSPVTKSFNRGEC
notes: IgG1-mut of Fcmut-01: L234A + L235A + deletion of 329 and 330 (EU index); also called Fcmut-8

Biological target: T5, Human CD64/FCGR1A protein (human, UniProt P12314 16-288, limits assumed)
T5 construct: Bought, his-tagged; also called FcγRI; not shown: his tag
Assay: SPR (Biacore T200);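 for result: His-tagged Fc receptors captured on an anti-His antibody chip, Fc-variant antibodies flowed as analyte, 60 s association and 60 s dissociation, fitted by 1:1 or steady-state model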

T5 sequence (P12314 16-288 limits assumed): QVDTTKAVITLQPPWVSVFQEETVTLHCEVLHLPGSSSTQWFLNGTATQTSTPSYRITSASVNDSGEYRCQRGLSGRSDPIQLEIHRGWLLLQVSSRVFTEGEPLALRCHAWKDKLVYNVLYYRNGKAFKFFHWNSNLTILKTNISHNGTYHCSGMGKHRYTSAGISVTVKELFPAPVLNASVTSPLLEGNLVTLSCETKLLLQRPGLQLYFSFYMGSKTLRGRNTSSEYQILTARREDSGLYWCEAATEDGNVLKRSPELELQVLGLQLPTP

| fold reduction of binding against Fcmut-01 | Binder |
| --- | --- |
| 8.7 times | B1 |
| 12.9 times | B2 |
| 14 times | B3 |

Biological target: T6, Human FcγRIIIA/CD16A (F176) protein (human, UniProt P08637 17-208)
T6 construct: Bought, his-tagged; not shown: his tag
Assay: SPR (Biacore T200);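 for result: His-tagged Fc receptors captured on an anti-His antibody chip, Fc-variant antibodies flowed as analyte, 60 s association and 60 s dissociation, fitted by 1:1 or steady-state model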

T6 sequence (P08637 17-208 limits assumed): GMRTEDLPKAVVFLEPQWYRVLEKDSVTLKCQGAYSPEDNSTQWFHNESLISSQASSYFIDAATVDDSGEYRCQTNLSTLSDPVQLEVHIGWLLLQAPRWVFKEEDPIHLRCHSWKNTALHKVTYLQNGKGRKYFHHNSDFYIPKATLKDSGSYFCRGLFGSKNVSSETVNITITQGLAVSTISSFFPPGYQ

| binding result | Binder |
| --- | --- |
| no binding (tested: 400 nM) | B1 |
| no binding (tested: 400 nM) | B4 |
| no binding (tested: 400 nM) | B5 |
| no binding (tested: 400 nM) | B2 |
| no binding (tested: 400 nM) | B3 |
| no binding (tested: 400 nM) | B6 |

Biological target: T7, Human FcγRIIIA/CD16A (V176) protein (human, UniProt P08637 17-208)
T7 construct: Bought, his-tagged; not shown: his tag
Assay: SPR (Biacore T200);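 for result: His-tagged Fc receptors captured on an anti-His antibody chip, Fc-variant antibodies flowed as analyte, 60 s association and 60 s dissociation, fitted by 1:1 or steady-state model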

T7 sequence (P08637 17-208 F176V limits assumed): as the sequence (P08637 17-208 limits assumed) above, with F160V counted along it

| binding result | Binder |
| --- | --- |
| no binding (tested: 400 nM) | B1 |
| no binding (tested: 400 nM) | B4 |
| no binding (tested: 400 nM) | B5 |
| no binding (tested: 400 nM) | B2 |
| no binding (tested: 400 nM) | B3 |
| no binding (tested: 400 nM) | B6 |

Biological target: T8, Human FcγRIIIB/CD16B (NA1) (human, UniProt O75015 17-200, limits assumed)
T8 construct: Bought, his-tagged; not shown: his tag
Assay: SPR (Biacore T200);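 for result: His-tagged Fc receptors captured on an anti-His antibody chip, Fc-variant antibodies flowed as analyte, 60 s association and 60 s dissociation, fitted by 1:1 or steady-state model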

T8 sequence (O75015 other isoform, or with tags, fused parts or gaps limits assumed): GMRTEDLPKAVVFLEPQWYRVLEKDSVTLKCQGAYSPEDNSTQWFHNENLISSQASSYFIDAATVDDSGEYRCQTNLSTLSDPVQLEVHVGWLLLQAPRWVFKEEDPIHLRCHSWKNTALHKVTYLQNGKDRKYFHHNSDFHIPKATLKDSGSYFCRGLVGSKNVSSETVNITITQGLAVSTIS

| binding result | Binder |
| --- | --- |
| no binding (tested: 400 nM) | B1 |
| no binding (tested: 400 nM) | B4 |
| no binding (tested: 400 nM) | B5 |
| no binding (tested: 400 nM) | B2 |
| no binding (tested: 400 nM) | B3 |
| no binding (tested: 400 nM) | B6 |

Biological target: T9, Human FcγRIIIB/CD16B (NA2) (human, UniProt O75015 17-200, limits assumed)
T9 construct: Bought, his-tagged; not shown: his tag
Assay: SPR (Biacore T200)

T9 sequence (O75015 17-200 N65S limits assumed): as the sequence (O75015 other isoform, or with tags, fused parts or gaps limits assumed) above, with R20S, N49S, D66N, V90I counted along it

| binding result | Binder |
| --- | --- |
| no binding (tested: 400 nM) | B1 |
| no binding (tested: 400 nM) | B4 |
| no binding (tested: 400 nM) | B5 |
| no binding (tested: 400 nM) | B2 |
| no binding (tested: 400 nM) | B3 |
| no binding (tested: 400 nM) | B6 |

Biological target: T1, Human CD32A/FCGR2A protein (167his)
Assay: SPR (Biacore T200)
From the text: (§1) The specific procedures were as follows: Each of FcγR and FcRn proteins (for information of each Fc receptor, see Table 2 below) containing a histidine tag was captured to the chip surface to which anti-histidine antibodies were coupled, and the binding and dissociation between the proteins on the chip surface and antibodies in the mobile phase were detected to obtain affinity and kinetic constants.
(§2) Affinity assay: Each cycle included capture of the receptor, binding of a certain concentration of the antibody carrying the Fc region mutation of the present application, and regeneration of the chip. […] In each cycle, the antibody mutant solution flowed over the chip surface at a flow rate of 30 μL/min, with the binding time of 60 s and the dissociation time of 60 s. […] The obtained data were analyzed using Biacore T200 analysis software (version number 3.1) and using an analysis 1:1 binding or homeostasis analysis model to obtain the corresponding results.

| binding result | Binder |
| --- | --- |
| no binding (tested: 400 nM) | B1 |
| no binding (tested: 400 nM) | B4 |
| no binding (tested: 400 nM) | B5 |
| no binding (tested: 400 nM) | B2 |
| no binding (tested: 400 nM) | B3 |
| no binding (tested: 400 nM) | B6 |

Biological target: T2, Human CD32A/FCGR2A protein (167Arg)
Assay: SPR (Biacore T200)
From the text: as §1, §2

| binding result | Binder |
| --- | --- |
| no binding (tested: 400 nM) | B1 |
| no binding (tested: 400 nM) | B4 |
| no binding (tested: 400 nM) | B5 |
| no binding (tested: 400 nM) | B2 |
| no binding (tested: 400 nM) | B3 |
| no binding (tested: 400 nM) | B6 |

Biological target: T3, Human CD32B/FCGR2B protein
Assay: SPR (Biacore T200)
From the text: as §1, §2

| binding result | Binder |
| --- | --- |
| no binding (tested: 400 nM) | B1 |
| no binding (tested: 400 nM) | B4 |
| no binding (tested: 400 nM) | B5 |
| no binding (tested: 400 nM) | B2 |
| no binding (tested: 400 nM) | B3 |
| no binding (tested: 400 nM) | B6 |

Biological target: T5, Human CD64/FCGR1A protein
Assay: SPR (Biacore T200)
Remark: another data set of the same source
From the text: as §1, §2

| binding result | Binder |
| --- | --- |
| no binding (tested: 400 nM) | B4 |
| no binding (tested: 400 nM) | B5 |
| no binding (tested: 400 nM) | B6 |

Biological target: T10, human C1q (human, UniProt P02745 23-245; P02746 28-253; P02747 29-245)
T10 construct: Bought C1q (Complement Technology); also called C1q antigen
Assay: BLI (Octet), biotinylated antibody on SA sensor
Method: (§3) The antibody was diluted to approximately 100 nM, and C1q (Δ099, Complement Technology) was diluted to 40 nM.
(§4) Detection was conducted using Fortebio Octet Red96e, and the sensors were arranged according to the positions of the samples. […] After the experiment was completed, KD values were analyzed using ForteBio Octet analysis software, the coordinate axis data were derived, and Graphpad Prism 8 software was used for plotting.

T10 sequence (P02745 23-245 limits assumed, chain 1 of 3): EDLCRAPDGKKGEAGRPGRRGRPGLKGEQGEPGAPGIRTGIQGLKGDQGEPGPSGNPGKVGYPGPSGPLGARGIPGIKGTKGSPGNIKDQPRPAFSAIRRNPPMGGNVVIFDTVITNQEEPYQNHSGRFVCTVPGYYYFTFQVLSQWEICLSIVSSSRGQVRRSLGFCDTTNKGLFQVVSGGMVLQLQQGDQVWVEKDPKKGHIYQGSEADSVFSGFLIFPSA
T10 sequence (P02746 28-253 limits assumed, chain 2 of 3): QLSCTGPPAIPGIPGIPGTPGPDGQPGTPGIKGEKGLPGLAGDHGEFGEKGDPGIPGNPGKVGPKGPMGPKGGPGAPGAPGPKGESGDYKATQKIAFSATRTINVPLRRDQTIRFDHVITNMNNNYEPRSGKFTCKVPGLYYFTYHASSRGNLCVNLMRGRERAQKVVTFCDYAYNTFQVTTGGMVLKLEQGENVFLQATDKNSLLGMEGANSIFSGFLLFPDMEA
T10 sequence (P02747 29-245 limits assumed, chain 3 of 3): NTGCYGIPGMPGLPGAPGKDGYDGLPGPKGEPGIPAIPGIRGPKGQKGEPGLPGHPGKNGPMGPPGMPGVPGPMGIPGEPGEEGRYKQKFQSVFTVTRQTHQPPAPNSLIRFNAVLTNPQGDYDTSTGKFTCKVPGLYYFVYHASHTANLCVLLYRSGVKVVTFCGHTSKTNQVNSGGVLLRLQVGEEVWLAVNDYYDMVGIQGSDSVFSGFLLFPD

| binding result | Binder |
| --- | --- |
| no binding (tested: C1q 40 nM) | B1 |
| no binding (tested: C1q 40 nM) | B2 |
| no binding (tested: C1q 40 nM) | B6 |

Biological target: T4, Claudin18.2 (cp0007, Genscript)
Assay: BLI (Octet), antibody on AHC sensor, Claudin18.2 100 nM
Method: The antibody and Claudin18.2 (cp0007, Genscript) were diluted to 100 nM, respectively.
Detection was conducted using Fortebio Octet Red96e, and the sensors were arranged according to the positions of the samples. […] After the experiment was completed, KD values were analyzed using ForteBio Octet analysis software.

| Kd | Response | koff | kon | Binder |
| --- | --- | --- | --- | --- |
| 2.73 nM | 0.138 nm | 0.0002 s⁻¹ | 73200 M⁻¹ s⁻¹ | B1 |
| 2.44 nM | 0.144 nm | 0.0002 s⁻¹ | 81900 M⁻¹ s⁻¹ | B4 |
| 2.47 nM | 0.154 nm | 0.0002 s⁻¹ | 80900 M⁻¹ s⁻¹ | B5 |
| 2.9 nM | 0.15 nm | 0.0002 s⁻¹ | 69000 M⁻¹ s⁻¹ | B2 |
| 2.83 nM | 0.146 nm | 0.0002 s⁻¹ | 70700 M⁻¹ s⁻¹ | B3 |
| 2.41 nM | 0.152 nm | 0.0002 s⁻¹ | 82900 M⁻¹ s⁻¹ | B6 |

Biological target: T10, human C1q
Assay: BLI (Octet), biotinylated antibody on SA sensor, C1q 40 nM
Method: as §3, §4

| Response | Binder |
| --- | --- |
| 0.0007 nm | B1 |
| -0.0035 nm | B4 |
| -0.0134 nm | B5 |
| 0.0016 nm | B2 |
| -0.0027 nm | B3 |
| 0.0004 nm | B6 |

Biological target: T5, Human CD64/FCGR1A protein
Assay: SPR (Biacore T200), his-tagged receptor captured, antibody in flow
From the text: as §1, §2

| Kd | Binder |
| --- | --- |
| 9.31 nM | B1 |
| 13.8 nM | B2 |
| 15 nM | B3 |

Biological target: T11, Human FcRn/FCGRT & B2M heterodimeric protein (human, UniProt P55899 24-297; P61769 21-119)
T11 construct: Bought heterodimer with His and Strep II tags
Assay: SPR (Biacore T200), FcRn captured, antibody in flow, pH 6.0; pH 6.0
From the text: as §1, §2

| Kd | Binder |
| --- | --- |
| 447 nM | B1 |
| 284 nM | B4 |
| 374 nM | B5 |
| 317 nM | B2 |
| 505 nM | B3 |
| 402 nM | B6 |

Biological target: T5, Human CD64/FCGR1A protein
Assay: SPR (Biacore T200), his-tagged CD64 captured on anti-His CM5 chip, antibody as analyte, pH 7.4, 1:1 binding fit
From the text: as §1, §2

| koff | kon | Binder |
| --- | --- | --- |
| 0.0136 s⁻¹ | 1.46e+06 M⁻¹ s⁻¹ | B1 |
| 0.0377 s⁻¹ | 2.74e+06 M⁻¹ s⁻¹ | B2 |
| 0.0141 s⁻¹ | 938000 M⁻¹ s⁻¹ | B3 |
